Consider one protein from publication doi:10.1101/2025.01.13.632879 (bioRxiv, 2025).

As usually defined, the stoichiometry N is a count of units in the complex or per binding partner.

The series deals with the molecule itself. Description: SEC; affinity-purified protein alone; Superdex 200 Increase 10/300 GL, 100 uL of 10 mg/mL, 0.2 mL/min; 200 mM NaCl, 10 mM Tris HCl pH 7.5, 5% glycerol, 1 mM DTT; monomer and dimer peaks. On the technique in general: In gel filtration, larger molecules generally elute earlier.

B1: Escherichia coli LolA P65T (natural protein, UniProt P61316 22-203, looked up)
chain: DAASDLKSRLDKVSSFHASFTQKVTDGSGAAVQEGQGDLWVKRTNLFNWHMTQPDESILVSDGKTLWFYNPFVEQATATWLKDATGNTPFMLIARNQSSDWQQYNIKQNGDDFVLTPKASNGNLKQFTINVGRDGTIHQFSAVEQDDQRSSYQLKSQQNGAVDAAKFTFTPPQGVTVDDQRK
notes: LolA of Escherichia coli; source: E. coli BL21(DE3), purified (Ni-NTA, SEC)
Regarding B1, the “stoichiometry N” value was found to be 2.
